Assay results reported in article PMC9164268.
One block for each binder: values may come before it.

Tests used:
[1] = biological target: T1, surfactant protein D (human), P35247; experiment: SEC; Sephadex G-200 column (1.5 x 12 cm, 20 mL), 0.05 M HNaPO4, 0.15 M NaCl, pH 7; 1.5 mg/mL protein loaded, 12 x 1 mL fractions, isocratic; protein in fractions by Bradford assay and slot blot with anti-SPD and anti-MAA; conditions: remark: other sources report otherwise
T1 chain: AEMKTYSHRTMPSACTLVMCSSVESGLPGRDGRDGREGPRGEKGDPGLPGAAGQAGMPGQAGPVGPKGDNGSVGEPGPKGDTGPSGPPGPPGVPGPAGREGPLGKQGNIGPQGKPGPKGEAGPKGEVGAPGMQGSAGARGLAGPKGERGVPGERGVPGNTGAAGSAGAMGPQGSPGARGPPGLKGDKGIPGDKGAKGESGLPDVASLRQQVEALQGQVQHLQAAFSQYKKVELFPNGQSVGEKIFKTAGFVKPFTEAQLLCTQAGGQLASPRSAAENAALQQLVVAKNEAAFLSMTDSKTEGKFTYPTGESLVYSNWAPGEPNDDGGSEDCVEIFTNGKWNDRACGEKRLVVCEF

[2] = biological target: T2, MAA-adducted surfactant protein D (human), P35247; experiment: as above; conditions: remark: other sources report otherwise
T2 chain: T1 chain

- stoichiometry N [1]: 3
B1: surfactant protein D, P35247 21-375 (natural protein)
chain: T1 chain

- stoichiometry N [2]: 3
B2: MAA-adducted surfactant protein D, P35247 21-375 (natural protein)
chain: T1 chain
modifications: here or on the partner: malondialdehyde-acetaldehyde (MAA) adducts; MAA adduction occurs primarily on lysine residues; positions not given; malondialdehyde-acetaldehyde (MAA) adducts; MAA adduction occurs primarily on lysine residues; positions not given
